Experimental data from the RNAGym collection of RNA variant scans (doi:10.7554/elife.90254).

B1: LINE1-mini (parent)
chain: GGCAGAGCUCAACACAGCGUGGCAAAGUGGCUGUGGCUAGACUGCC

Variants of: B1
Assay: self-cleavage, relative activity (ratio to wild type); higher = more cleavage; in vitro, sequencing; the parent is a self-cleaving ribozyme
With G40C A41U the self-cleavage was 0.14.
With A39C G44A the self-cleavage was 0.08.
For A39C G44U, the self-cleavage was 0.1.
Variant A39C G44C has a self-cleavage of 0.04.
Variant U38G A41G has a self-cleavage of 0.14.
U38G A41C showed a self-cleavage of 0.02.
U38G A41U gave a self-cleavage of 0.04.
G40C G44U gave a self-cleavage of 0.07.
G40C G44C showed a self-cleavage of 0.06.
Variant G40C G44A has a self-cleavage of 0.12.
Work on C37U C45U yielded a self-cleavage of 0.04.
In the case of C37U C45A, the self-cleavage is reported as 0.06.
In the case of C37U C45G, the self-cleavage is reported as 0.08.
In the case of C37G U38A, the self-cleavage is reported as 0.03.
For C37G U38C, the self-cleavage was 0.04.
With C37G U38G the self-cleavage was 0.01.
C37A C42G showed a self-cleavage of 0.06.
Work on C37A C42A yielded a self-cleavage of 0.05.
With C37A C42U the self-cleavage was 0.16.
A39G C45G showed a self-cleavage of 0.09.
In the case of A39G C45A, the self-cleavage is reported as 0.1.
In the case of A39G C45U, the self-cleavage is reported as 0.06.
G36C G40U showed a self-cleavage of 0.18.
In the case of G36C G40A, the self-cleavage is reported as 0.09.
In the case of G36C G40C, the self-cleavage is reported as 0.08.
U38G C42A gave a self-cleavage of 0.03.
For U38G C42U, the self-cleavage was 0.03.
With U38G C42G the self-cleavage was 0.02.
For C37G G40U, the self-cleavage was 0.08.
Variant C37G G40A has a self-cleavage of 0.08.
Variant C37G G40C has a self-cleavage of 0.08.
Variant G40C C46G has a self-cleavage of 0.08.
With G40C C46U the self-cleavage was 0.08.
With G40C C46A the self-cleavage was 0.1.
In the case of G40C C42U, the self-cleavage is reported as 0.07.
In the case of G40C C42G, the self-cleavage is reported as 0.1.
G40C C42A gave a self-cleavage of 0.07.
G36U C42A showed a self-cleavage of 0.06.
G36U C42U showed a self-cleavage of 0.06.
For G36U C42G, the self-cleavage was 0.03.
Variant C37A U43A has a self-cleavage of 0.13.
C37A U43G showed a self-cleavage of 0.08.
C37A U43C showed a self-cleavage of 0.05.
For C37G C46U, the self-cleavage was 0.04.
With C37G C46A the self-cleavage was 0.02.
With C37G C46G the self-cleavage was 0.17.
C37U C46A gave a self-cleavage of 0.07.
For C37U C46U, the self-cleavage was 0.06.
C37U C46G gave a self-cleavage of 0.04.
C37U U38G gave a self-cleavage of 0.03.
C37U U38A gave a self-cleavage of 0.04.
In the case of C37U U38C, the self-cleavage is reported as 0.06.
U38A U43A gave a self-cleavage of 0.03.
With U38A U43C the self-cleavage was 0.13.
For C37G U43G, the self-cleavage was 0.05.
For C37G U43C, the self-cleavage was 0.09.
In the case of C37G U43A, the self-cleavage is reported as 0.07.
Variant G40U C42G has a self-cleavage of 0.08.
Work on G40U C42U yielded a self-cleavage of 0.07.
In the case of G40U C42A, the self-cleavage is reported as 0.09.
Work on U38C C46A yielded a self-cleavage of 1.27.
Variant U38C C46U has a self-cleavage of 0.44.
In the case of U38C C46G, the self-cleavage is reported as 0.64.
For U38G G40A, the self-cleavage was 0.04.
U38G G40U gave a self-cleavage of 0.05.
With U38G G40C the self-cleavage was 0.03.
C37A G40C showed a self-cleavage of 0.2.
Work on C37A G40U yielded a self-cleavage of 0.2.
Work on C37A G40A yielded a self-cleavage of 0.19.
For U38G G44U, the self-cleavage was 0.03.
U38G G44A showed a self-cleavage of 0.03.
With U38G G44C the self-cleavage was 0.06.
With U38C G44U the self-cleavage was 0.27.
Work on U38C G44C yielded a self-cleavage of 0.32.
Work on U38C G44A yielded a self-cleavage of 0.3.
In the case of G40A U43C, the self-cleavage is reported as 0.08.
Variant G40A U43A has a self-cleavage of 0.06.
For G40A U43G, the self-cleavage was 0.09.
With G36C U38G the self-cleavage was 0.02.
Variant G36C U38C has a self-cleavage of 0.05.
G36C U38A showed a self-cleavage of 0.06.
U38C A41U showed a self-cleavage of 0.13.
For U38C A41G, the self-cleavage was 0.11.
U38C A41C showed a self-cleavage of 0.04.
